Patent publication US20140147490A1, “HLA CLASS I A2 TUMOR ASSOCIATED ANTIGEN PEPTIDES AND VACCINE COMPOSITIONS” (priority 2012, published 2014)

T1: HLA-A*6802 (human, UniProt P30375 25-308 (Gorilla gorilla entry), limits assumed)
T1 construct: purified HLA molecule; b2m and chain limits not described
T1 MHC heavy: not shown


Key:
[1] = tested on: patients with recurrent or residual cervical carcinoma; conditions: cited from earlier work
HLA-A*6802 [2] = molecular target: T1, HLA-A*6802; experiment: competitive inhibition assay, purified HLA
HLA-A*6802 [3] = molecular target: T1, HLA-A*6802; experiment: competitive binding assay, purified HLA

IC50 (HLA-A*6802 [2]) [nM]	IC50 (HLA-A*6802 [3]) [nM]	Molecule	responding patients ([1]; 95% interval 10-65%) [%]	safety ([1]; immunocompromised cervical carcinoma patients)
		aKXVAAWTLKAAa-NH2 [PADRE]	33	favorable safety profile
1140		HLYQGCQVV (native HER2/neu peptide) [Her2/neu.48]		
2000	2000	VVLGVVFGI (native HER2/neu peptide) [Her2/neu.665]		
